Data reported in paper PMC10892419, “UHPLC-MS/MS Assay for Quantification of Legubicin, a Novel Doxorubicin-Based Legumain-Activated Prodrug, and Its Application to Pharmacokinetic and Tissue Distribution Studies” (Molecules, 2024).
Residues, ends and D or L forms follow the SMILES beside them. *: point of attachment. Doxorubicin(3'-N) = COc1cccc2c1C(=O)c1c(O)c3c(c(O)c1C2=O)C[C@@](O)(C(=O)CO)C[C@@H]3O[C@H]1C[C@H](N*)[C@H](O)[C@H](C)O1; Hexanoyl(6-maleimido) = O=C1C=CC(=O)N1CCCCCC(=O)*

Assays:
[1] = cited from earlier work
[2] = Tissue-distribution study after i.v. legubicin or doxorubicin; settings: HT1080 tumor-bearing mice
Protocol: The mixture was vortexed for 3 min, and then centrifuged at 22,000× g at 4 °C for 10 min. A final analysis was conducted by injecting 5 µL supernatant into a UHPLC-MS/MS system. Mouse plasma samples were treated in the same way as the rat plasma samples, except for protein precipitation, with 200 µL of 5 pmol/mL IS working solution and injection of 2 µL of supernatant for analysis.
Each legubicin administration group corresponded to a sampling time-point (4, 16, 32, 48, 96, 168, and 240 h after administration). […] Blood samples and tumor, heart, and kidney tissues were collected at the sampling time points (4, 16, 32, 48, 96, 168, and 240 h after dosing). In addition, liver, spleen, lung, stomach, small intestine, gonads, brain, skeletal muscle, and skin were also collected at 4, 32, 96, and 240 h post-dose time points in the legubicin administration group. All whole-blood samples were processed according to the same processing steps, described above, for rat whole-blood samples.
The analysis software (Version 1.5.2, AB Sciex, Vaughan, ON, Canada) was applied to data acquisition and quantification. Pharmacokinetic parameters were calculated with WinNonlin Phoenix (v6.4, Pharsight, Mountain View, CA, USA) with the noncompartmental method, and were presented as mean ± SD (%CV). The “Best fit” strategy in the WinNonlin Phoenix was used for the calculation of elimination half-life and the selection of the elimination phase. Graphs were plotted by GraphPad Software (GraphPad Prism 8.0.2; GraphPad Software, Inc., La Jolla, CA, USA).

[3] = acute toxicological assessment in dogs; ref unpublished preclinical studies at the authors' institution; cited from earlier work
[4] = legubicin vs equimolar doxorubicin (9.05 µmol/kg i.v.)

| SMILES | AUC ([1]; doses equivalent to 2.5 mg/kg of doxorubicin) [µM·h] | clearance (CL) ([1]; published value) | T/P Ratio of doxorubicin, kidney ([2]; i.v. 9.05 µmol/kg of the labelled drug, n = 6, tissue-to-plasma ratio) | fold decrease in doxorubicin exposure (AUClast) in the heart [2, 4] [fold] | fold decrease in doxorubicin exposure (AUClast) in the kidney [2, 4] [fold] | fold increase in tumor doxorubicin exposure (AUClast) [2, 4] [fold] | MTD relative to doxorubicin [3] | maximum tolerated dose (MTD) [3] [mg/kg] |
| --- | --- | --- | --- | --- | --- | --- | --- | --- |
| COc1cccc2c1C(=O)c1c(O)c3c(c(O)c1C2=O)C[C@@](O)(/C(CO)=N/NC(=O)CCCCCN1C(=O)C=CC1=O)C[C@@H]3O[C@H]1C[C@H](N)[C@H](O)[C@H](C)O1 [DOXO-EMCH, doxorubicin (6-maleimidocaproyl) hydrazone] | 536 | approximately 7.9 mL/h/kg |  |  |  |  |  |  |
| COc1cccc2c1C(=O)c1c(O)c3c(c(O)c1C2=O)C[C@@](O)(C(=O)CO)C[C@@H]3O[C@H]1C[C@H](NC(=O)[C@H](CC(C)C)NC(=O)[C@H](CC(N)=O)NC(=O)[C@H](C)NC(=O)[C@H](C)NC(=O)CCCCCN2C(=O)C=CC2=O)[C@H](O)[C@H](C)O1 [Legubicin] ({Hexanoyl(6-maleimido)}-AANL-{Doxorubicin(3'-N)}) |  |  | 28.9 | 3.3 | 3.5 | 1.8 | tenfold increase compared to doxorubicin | 15 |
